Like-named read-outs stand apart in the source and are kept apart here.
T1: his-tagged cynomolgus monkey PVRIG (cyno-PVRIG-his) recombinant protein (cynomolgus monkey)
T1 construct: expressed in HEK293, purified by Ni-NTA; also called Monkey PVRIG-his; cynomolgus monkey PVRIG recombinant protein
T1 chain: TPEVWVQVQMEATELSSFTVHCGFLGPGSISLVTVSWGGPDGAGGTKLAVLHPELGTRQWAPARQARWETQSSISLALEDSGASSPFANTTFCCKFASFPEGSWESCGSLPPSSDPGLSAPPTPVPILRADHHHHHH

T2: human IgG1 Fc-tagged mouse PVRIG (m-PVRIG-hIgG1 Fc) (mouse, UniProt A0A1B0GS01 35-165)
T2 construct: bought from Acrobiosystems; also called Mouse PVRIG-Fc; mouse PVRIG recombinant protein; not shown: human IgG1 Fc tag of the Acrobiosystems product, and any linker to it
T2 sequence: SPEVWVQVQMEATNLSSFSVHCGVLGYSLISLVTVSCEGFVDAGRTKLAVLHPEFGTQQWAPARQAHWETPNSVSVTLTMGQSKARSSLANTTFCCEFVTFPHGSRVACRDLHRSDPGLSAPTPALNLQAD

T3: human PVRIG expressed on cells (human, UniProt Q6DKI7 41-326)
T3 construct: whole, on cells; also called Human PVRIG FACS; cells overexpressing human PVRIG
T3 sequence (looked up): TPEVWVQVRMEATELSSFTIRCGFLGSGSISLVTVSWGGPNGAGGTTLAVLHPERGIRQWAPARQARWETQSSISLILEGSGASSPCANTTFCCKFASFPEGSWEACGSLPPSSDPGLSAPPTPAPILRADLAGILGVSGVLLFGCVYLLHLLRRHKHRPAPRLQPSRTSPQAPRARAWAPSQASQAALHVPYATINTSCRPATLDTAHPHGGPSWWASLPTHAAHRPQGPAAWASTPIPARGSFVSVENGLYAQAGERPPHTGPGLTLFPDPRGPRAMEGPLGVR

T4: cynomolgus monkey PVRIG expressed on cells (cynomolgus monkey, UniProt A0A2K5WVV8 1-322)
T4 construct: whole, on cells; also called Monkey PVRIG FACS; cells overexpressing cynomolgus monkey PVRIG
T4 sequence: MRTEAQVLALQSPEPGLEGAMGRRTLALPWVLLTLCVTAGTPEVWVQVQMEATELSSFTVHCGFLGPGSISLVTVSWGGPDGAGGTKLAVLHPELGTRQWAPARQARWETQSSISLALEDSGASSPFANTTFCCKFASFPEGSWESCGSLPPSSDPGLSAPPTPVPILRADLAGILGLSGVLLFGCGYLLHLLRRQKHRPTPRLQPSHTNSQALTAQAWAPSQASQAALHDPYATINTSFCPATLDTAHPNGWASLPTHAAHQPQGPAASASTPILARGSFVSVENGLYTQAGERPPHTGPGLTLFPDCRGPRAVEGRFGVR

T5: his-tagged human PVRIG (h-PVRIG-his) recombinant protein (human, UniProt Q6DKI7 41-171, limits assumed)
T5 construct: bought from Acrobiosystems; also called Human PVRIG-his; human PVRIG recombinant protein; not shown: his tag
T5 sequence (looked up): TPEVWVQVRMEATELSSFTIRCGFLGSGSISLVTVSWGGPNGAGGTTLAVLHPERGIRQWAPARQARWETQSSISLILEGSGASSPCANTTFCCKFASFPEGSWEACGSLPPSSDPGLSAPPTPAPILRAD

T6: human TIGIT recombinant protein (human, UniProt Q495A1 22-141, limits assumed)
T6 construct: construct not described; also called human TIGT recombinant protein
T6 sequence (looked up): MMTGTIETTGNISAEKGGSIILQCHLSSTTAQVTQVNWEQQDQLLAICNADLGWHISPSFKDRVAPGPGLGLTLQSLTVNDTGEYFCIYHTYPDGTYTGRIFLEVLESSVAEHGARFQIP

T7: human TIGIT expressed on cells (human, UniProt Q495A1 22-244)
T7 construct: whole, on cells; also called cells overexpressing human TIGIT
T7 sequence (looked up): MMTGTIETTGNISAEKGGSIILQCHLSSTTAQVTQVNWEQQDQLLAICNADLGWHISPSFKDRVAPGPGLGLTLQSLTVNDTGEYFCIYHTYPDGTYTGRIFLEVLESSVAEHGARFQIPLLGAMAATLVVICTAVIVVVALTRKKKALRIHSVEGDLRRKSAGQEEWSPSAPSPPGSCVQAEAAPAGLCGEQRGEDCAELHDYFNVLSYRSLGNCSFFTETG

B1: anti-PVRIG antibody 20 (antibody, human IgG4 S228P, F234A L235A, V domains shown)
VH: DVQLVESGGGSVQAGGSLRLSCVASRYTSRTDCMGWFRQAPGKEHEGVAHIDSDGIPRYVDSVKGRFTISQDHAKNTLYLQMNSLKPEDSATYYCVVGFKFDDDYCAPNDWGQGTQVTVSS
notes: no light chain
B2: humanized anti-PVRIG antibody 20H5 (antibody, human IgG4 S228P, F234A L235A, V domains shown)
VH: EVQLVESGGGLVQPGGSLRLSCAASGYTSRTDCMGWFRQAPGKEHEGVAHIDSDGIPRYVDSVKGRFTISQDHAKNSLYLQMNSLRAEDTAVYYCVVGFKFDEDYCAPNDWGQGTMVTVSS
B3: humanized anti-PVRIG antibody 30H2 (antibody, human IgG4 S228P, F234A L235A, V domains shown)
VH: EVQLVESGGGLVQPGGSLRLSCAASGFTFSGDCMGWFRQAPGKGLDEGVATIDNAGRIKYADSVKGRFTISRDNAKNSLYLQMNSLRAEDTAVYYCAAGWTFGGQCSPADWGQGTQVTVSS
B4: anti-PVRIG/TIGIT bispecific antibody 1708-151-1 (bispecific antibody, human IgG4 S228P, kappa)
heavy: not shown
light: DIQMTQSPSSLSASVGDRVTITCRASENIYSYLAWYQQKPGKSPKLLIYNARTLAEGVPSRFSGSGSGTDFTLTISSLQPEDFATYYCQYHSGSPLPFGGGTKVEIKRTVAAPSVFIFPPSDEQLKSGTASVVCLLNNFYPREAKVQWKVDNALQSGNSQESVTEQDSKDSTYSLSSTLTLSKADYEKHKVYACEVTHQGLSSPVTKSFNRGEC
B5: anti-PVRIG/TIGIT bispecific antibody 1708-151-2 (bispecific antibody, human IgG4 S228P, kappa)
heavy: not shown
light: B4 light
B6: humanized anti-PVRIG antibody 151H7 (antibody, human IgG4 S228P, F234A L235A, V domains shown)
VH: HVQLVESGGGLVQPGGSLRLSCVASASGFTYRPYCMAWFRQAPGKEREAVAGIDIFGGTTYADSVKGRFTASRDNAGFSLYLQMNSLRAEDTAVYYCAAGDSPDGRCPPLGQGLNYWGQGTMVTVSS

Key:
[1] = molecular target: T1, his-tagged cynomolgus monkey PVRIG …; assay: ELISA, coated antigen
Method: (§1) ELISA assay was used to detect binding properties of anti-PVRIG antibodies. […] After the antibody was added, the activity of the binding of the antibody to the antigen was detected by adding a secondary antibody (HRP-conjugated anti-primary antibody Fc antibody) and HRP substrate TMIB.
(§2) A human, cynomolgus monkey, or mouse PVRIG protein (at a concentration of 1 μg/mL) was coated on a 96-well microplate at 100 μL per well, and incubated overnight at 4° C. The plate was washed three times with wash buffer at 250 μL per well. For each wash, the plate was shaken for 10 s to ensure adequate cleaning. A blocking solution (PBS+0.05% Tween20+1% BSA) was added at 300 μL/well, and the plate was incubated at room temperature for 1 h. The plate was washed three times with wash buffer at 250 μL per well. For each wash, the plate was shaken for 10 s to ensure adequate cleaning. Dilutions of the test anti-PVRIG antibodies were added at 100 μL/well. The plate was incubated at 37° C. for 1 h. The plate was washed three times with wash buffer at 250 μL per well. The […] anti-human IgG secondary antibody (Sigma, A8667) was added at 100 μL per well. The plate was incubated at 37° C. for 1 h. The plate was washed three times with wash buffer at 250 μL per well. TMB was added at 100 μL/well, and the plate was incubated in the dark for 15 min. 0.16 M sulfuric acid was added at 50 μL/well. The OD values at 450 nm were read by using a Thermo MultiSkanFc microplate reader, and the EC₅₀ values of the binding of the anti-PVRIG antibodies to PVRIG were calculated.

[2] = molecular target: T2, human IgG1 Fc-tagged mouse PVRIG …; assay: ELISA, coated antigen
Method: as §1, §2

[3] = molecular target: T3, human PVRIG expressed on cells; assay: FACS, HEK293 cells overexpressing target
Method: (§3) The expression plasmid carrying human or cynomolgus monkey PVRIG gene sequence was transfected into HEK293 cells, and the over-expressing stable transfection monoclonal cell strain was obtained by antibiotic screening and infinite dilution. Overexpressing cells were seeded into a 96-well plate at 2×10⁵ cells/per well. The cells were centrifuged at 300 g for 5 min, the supernatant was then removed, 100 μL of the test antibody was added, and the mixture was incubated at 4° C. for 1 h. The mixture was centrifuged, the supernatant was removed, the plate was washed 3 times with 200 μL of wash buffer (PBS+2% FBS), and then 100 μL of an anti-human IgG secondary antibody (Invitrogen, A-11013) labeled with Alexa Fluor 488 diluted at 1:500 was added. The mixture was incubated at 4° C. for 1 h. The plate was centrifuged, and the supernatant was removed. The plate was washed 3 times with 200 μL of wash buffer (PBS+2% FBS). The cells were resuspended in 100 μL of PBS and tested on a flow cytometer (BD FACS Calibur or BD FACS Canto_II).
(§4) Binding of the humanized anti-PVRIG antibodies to human or cynomolgus monkey PVRIG was detected by using a flow cytometer according to the method of Example 5.

[4] = molecular target: T4, cynomolgus monkey PVRIG expressed on …; assay: FACS, HEK293 cells overexpressing target
Method: as §3, §4

[5] = molecular target: T3, human PVRIG expressed on cells; assay: cell-based or functional assay
[6] = molecular target: T3, human PVRIG expressed on cells; assay: cell-based or functional assay; remark: listed apart in the source
[7] = molecular target: T5, his-tagged human PVRIG (h-PVRIG-his) …; assay: BLI (Fortebio), antibody on Protein A sensor, 1:1 fit
Method: A Protein A biosensor (Fortebio, #18-5010) was immersed in 200 μL of KB buffer (PBS, pH 7.4, 0.02% tween-20, 0.1% BSA) for 60 s for the wetting treatment. Then, the anti-PVRIG antibody was diluted to 10 μg/mL with the KB buffer, and the sensor was immersed in 200 μL of the solution until the reading was 1.2 nm. The sensor was immersed in the KB buffer for 100 s to elute excess antibody. The his-tagged human PVRIG was diluted in a 2-fold gradient to 64 nM-4 nM with the KB buffer. The sensor was immersed in the solution for 300 s for binding. The sensor was immersed in the KB buffer for 600 s for dissociation. The data were fitted in a dynamic 1:1 binding mode.
The affinity of the humanized anti-PVRIG antibodies for human PVRIG was detected according to the method of Example 7. All the antibodies listed in the Table have high affinity for human PVRIG.

[8] = molecular target: T6, human TIGIT recombinant protein; assay: competition ELISA; human TIGIT, competitor human PVR
Method: The h-PVRIG-mIgG2a Fc protein (at a concentration of 1 μg/mL) was coated on the 96-well microplate at 100 μL per well, and incubated overnight at 4° C. The plate was washed three times with wash buffer at 250 μL per well. For each wash, the plate was shaken for 10 s to ensure adequate cleaning. A blocking solution was added at 300 μL/well, and the plate was incubated at room temperature for 1 h. The plate was washed three times with wash buffer at 250 μL per well. For each wash, the plate was shaken for 10 s to ensure adequate cleaning. 50 μL of diluted test anti-PVRIG antibody and 50 μL of his-tagged ligand PVRL2 were added to each well, and the plate was incubated at 37° C. for 1 h. The plate was washed three times with wash buffer at 250 μL per well. The HRP-labeled anti-his-tagged secondary antibody (Genscrpit) diluted at 1:2000 was added at 100 μL per well. The plate was incubated at 37° C. for 1 h. The plate was washed three times with wash buffer at 250 μL per well. TMB was added at 100 μL/well, and the plate was incubated in the dark for 15 min. 0.16 M sulfuric acid was added at 50 μL/well. OD values at 450 nm were measured using a Thermo MμtLtiSkanFc microplate reader, and the IC₅₀ values of the anti-PVRIG antibodies blocking the binding of PVRIG to PVRL2 were calculated.
(§5) The experiments were carried out according to the methods of Example 4, Example 5 and Example 6 (corresponding receptors and ligands were replaced with human TIGIT and human PVR), and the results are shown in Table 27.

[9] = molecular target: T6, human TIGIT recombinant protein; assay: ELISA, coated antigen
Method: as §2, §5

[10] = molecular target: T7, human TIGIT expressed on cells; assay: FACS, cells overexpressing target
Method: as §3, §5

[11] = molecular target: T3, human PVRIG expressed on cells; assay: cell-based or functional assay; remark: listed apart in the source

Binder	EC50 [3]	EC50 [4]	NK92 killing of K562, killing activity (%), 4 nM antibody [5]	NK92 killing of K562, killing activity (%), 20 nM antibody [5]	NK92 killing of K562, killing activity (%), 100 nM antibody [5]	PVRIG reporter gene cell activity EC50 [6]	Kd [7]	koff [7]	kon [7]	IC50 [8]	EC50 [9]	EC50 [10]	other results
B1	–	–	–	–	–	–	–	–	–	–	–	–	EC50 [1]: 0.14 nM; binding result [2]: no binding
B2	0.005 nM	0.007 nM	9.2%	9.9%	13.3%	0.042 nM	0.0698 nM	1.35e-05 s⁻¹	193000 M⁻¹ s⁻¹	–	–	–	–
B3	0.003 nM	0.005 nM	7.7%	14.5%	17.7%	0.176 nM	1.92 nM	0.000325 s⁻¹	169000 M⁻¹ s⁻¹	–	–	–	–
B4	–	–	–	–	–	–	–	–	–	0.96 nM	0.101 nM	1.51 nM	–
B5	–	–	–	–	–	–	–	–	–	1.04 nM	0.09 nM	1.27 nM	–
B6	0.002 nM	0.467 nM	–	–	–	0.038 nM	1.2 nM	0.000188 s⁻¹	157000 M⁻¹ s⁻¹	–	–	–	NK92 killing of K562, killing activity (%), 4 nM antibody [11]: 16.9%; NK92 killing of K562, killing activity (%), 20 nM antibody [11]: 21%; NK92 killing of K562, killing activity (%), 100 nM antibody [11]: 18.4%

— patent US20240376207A1 (JIANGSU HENGRUI PHARMACEUTICALS, published 2024)
